Laboratory results from patent US7166427.

Target: T1, PepTag peptide C1
T1 chain: PLSRTLSVAAK

B1: recombinant DESC1 polypeptide expressed as a fusion protein with an amino-terminal His tag (pcDNA4/HisMax) (protein)
chain: MYRPDVVRARKRVCWEPWVIGLVIFISLIVLAVCIGLTVHYVRYNQKKTYNYYSTLSFTTDKLYAEFGREASNNFTEMSQRLESMVKNAFYKSPLREEFVKSQVIKFSQQKHGVLAHMLLICRFHSTEDPETVDKIVQLVLHEKLQDAVGPPKVDPHSVKIKKINKTETDSYLNHCCGTRRSKTLGQSLRIVGGTEVEEGEWPWQASLQWDGSHRCGATLINATWLVSAAHCFTTYKNPARWTASFGVTIKPSKMKRGLRRIIVHEKYKHPSHDYDISLAELSSPVPYTNAVHRVCLPDASYEFQPGDVMFVTGFGALKNDGYSQNHLRQAQVTLIDATTCNEPQAYNDAITPRMLCAGSLEGKTDACQGDSGGPLVSSDARDIWYLAGIVSWGDECAKPNKPGVYTRVTALRDWITSKTGI
Question: How did the “PepTag Protease Assay: proteolysis of dye-linked peptide, agarose gel electrophoresis” value turn out when B1 was run?
Answer: demonstrate proteolytic cleavage of C1 peptide by fractions containing DESC1 polypeptide eluted from the ProBond resin
